The source of these data is article PMC6886522.

In data set [1] the test system is O=C(O)c1ccccc1N[C@@H]1O[C@H](COP(=O)(O)O)[C@@H](O)[C@H]1O. Kind of data set: purified protein.
Data set [2] deals with NC(=O)c1ncn([C@@H]2O[C@H](COP(=O)(O)O)[C@@H](O)[C@H]2O)c1N=CN[C@@H]1O[C@H](COP(=O)(O)O)[C@@H](O)[C@H]1O. Kind of data set: purified protein.
Substrate in data set [3]: NC(=O)c1ncn([C@@H]2O[C@H](COP(=O)(O)O)[C@@H](O)[C@H]2O)c1N=CN[C@@H]1O[C@H](COP(=O)(O)O)[C@@H](O)[C@H]1O
The experiment in a line: ProFAR isomerase steady-state kinetics. Format: biochemical, Streptomyces sviceus.

Substrate in data set [4]: O=C(O)c1ccccc1N[C@@H]1O[C@H](COP(=O)(O)O)[C@@H](O)[C@H]1O
Kind of data set: PRA isomerase steady-state kinetics. Format: biochemical, Streptomyces sviceus.

Substrate in data set [5]: O=C(O)c1ccccc1N[C@@H]1O[C@H](COP(=O)(O)O)[C@@H](O)[C@H]1O
Kind of data set: PRA isomerase steady-state kinetics. It is filed as biochemical, Streptomyces globisporus.

Substrate in data set [6]: NC(=O)c1ncn([C@@H]2O[C@H](COP(=O)(O)O)[C@@H](O)[C@H]2O)c1N=CN[C@@H]1O[C@H](COP(=O)(O)O)[C@@H](O)[C@H]1O
Kind of data set: ProFAR isomerase steady-state kinetics. It is filed as biochemical, Streptomyces globisporus.

Substrate in data set [7]: O=C(O)c1ccccc1N[C@@H]1O[C@H](COP(=O)(O)O)[C@@H](O)[C@H]1O
Kind of data set: PRA isomerase steady-state kinetics. It is filed as biochemical, Jonesia denitrificans.

Substrate in data set [8]: O=C(O)c1ccccc1N[C@@H]1O[C@H](COP(=O)(O)O)[C@@H](O)[C@H]1O
The experiment in a line: PRA isomerase steady-state kinetics. Format: biochemical, Streptomyces ipomoeae.

Substrate in data set [9]: NC(=O)c1ncn([C@@H]2O[C@H](COP(=O)(O)O)[C@@H](O)[C@H]2O)c1N=CN[C@@H]1O[C@H](COP(=O)(O)O)[C@@H](O)[C@H]1O
Kind of data set: ProFAR isomerase steady-state kinetics. It is filed as biochemical, Streptomyces sp. C.

Substrate in data set [10]: O=C(O)c1ccccc1N[C@@H]1O[C@H](COP(=O)(O)O)[C@@H](O)[C@H]1O
The experiment in a line: PRA isomerase steady-state kinetics. It is filed as biochemical, Streptomyces sp. C.

Substrate in data set [11]: NC(=O)c1ncn([C@@H]2O[C@H](COP(=O)(O)O)[C@@H](O)[C@H]2O)c1N=CN[C@@H]1O[C@H](COP(=O)(O)O)[C@@H](O)[C@H]1O
Kind of data set: ProFAR isomerase steady-state kinetics. It is filed as biochemical, Streptomyces ipomoeae.

Substrate in data set [12]: NC(=O)c1ncn([C@@H]2O[C@H](COP(=O)(O)O)[C@@H](O)[C@H]2O)c1N=CN[C@@H]1O[C@H](COP(=O)(O)O)[C@@H](O)[C@H]1O
The experiment in a line: ProFAR isomerase steady-state kinetics. Format: biochemical, Mycolicibacterium smegmatis. Particulars: pH 7.5.

Substrate in data set [13]: O=C(O)c1ccccc1N[C@@H]1O[C@H](COP(=O)(O)O)[C@@H](O)[C@H]1O
Kind of data set: PRA isomerase steady-state kinetics. Format: biochemical, Mycolicibacterium smegmatis. Particulars: pH 7.5.

PriB_SMg1 (Streptomyces sp.): in [1], the Km is 129.6 ± 34 µM, the kcat came out at 0.29 ± 0.04 s⁻¹ and the kcat/Km amounted to 2200 M⁻¹ s⁻¹. Moreover, in [2], the Km was 13.2 ± 3.4 µM, the kcat is 0.92 ± 0.19 s⁻¹ and the kcat/Km was 69000 M⁻¹ s⁻¹.

B1: PriB_Ssvi (Streptomyces sviceus ATCC 29083) (protein)
chain: MPSKLSRLELLPAVDVRDGQAVRLVHGESGTETSYGSPLEAALSWQRAGAEWLHLVDLDAAFGTGDNRELVRQVTEAMDIKVELSGGIRDDASLAAALATGCTRVNLGTAALESPEWVAKVIAEHGDRIAVGLDVRGTTLKGRGWTSEGGDLYEALERLDKEGCARYVVTDIAKDGTLQGPNLELLRNVCAATDRPVVASGGVSSLDDLRAIAELVPLGVEGSIVGKALYAKAFTLEEALEAVAQ
On to B1, for which, in data set [3], the Km was 3.9 ± 0.89 µM, the kcat is 0.69 ± 0.04 s⁻¹ and the kcat/Km was 180000 M⁻¹ s⁻¹. Moreover, in data set [4], the Km is 24.5 ± 4.0 µM, the kcat is 1.6 ± 0.29 s⁻¹ and the kcat/Km was determined as 67000 M⁻¹ s⁻¹.

B2: PriA_Sglo (Streptomyces globisporus) (protein)
chain: MPKLELLPAVDVRDGQAVRLVHGESGSETSYGSPLEAALAWQSAGAEWLHLVDLDAAFGTGDNRALIAEVAGAMDIKVELSGGIRDDASLEAALATGCRRVNLGTAALETPEWVAKVIAEHGDKIAVGLDVRGTTLRGRGWTRDGGDLYETLARLDAEGCARYVVTDIAKDGTLEGPNLGLLRDVCAVTDRPVVASGGVSSLDDLRAISLLVPEGVEGAIVGKALYAKAFTLEEALKAVAA
With B2, in data set [5], the Km was found to be 11 ± 1.0 µM, the kcat was determined as 3.8 ± 0.2 s⁻¹ and the catalytic efficiency (kcat/Km) came out at 340000 M⁻¹ s⁻¹. In addition, in [6], the Km came to 4.2 ± 0.8 µM, the kcat was determined as 0.74 ± 0.03 s⁻¹ and the kcat/Km is 180000 M⁻¹ s⁻¹.

B3: TrpF-3_Jden (Jonesia denitrificans DSM 20603) (protein)
chain: MYIKVCGLTDPHAIDAAQAAHVDAIGFVHAPTSPRHLTPPHISTLTATVDCTIDTVLVVATTPIADALALAESTGVSVLQLHGQYSDDDVAYAAARFPRVWRATSLSASPNLTVGAYGEELLLLDAPQAGSGHTWDFAALAHRRPTGRWLLAGGLTPDNVADAITTTSPWGVDVSSGVESAPGVKDPAKIAAFVQAARGVSCPR
As for B3, in [7], the Km was determined as 16.8 ± 3.3 µM, the kcat was found to be 27 ± 1.6 s⁻¹ and the kcat/Km is 1.6e+06 M⁻¹ s⁻¹.

B4: TrpF-3_Sipo (Streptomyces ipomoeae 91-03) (protein)
chain: MSVSNSNDSLFIKICGLRTERDVDTAVEAGADAVGFVFSASPRQIDADTAARLCDRVPEHVLTVGVFRDEPLRDVRSFATDSGIRAVQLHGPEDRAYYDDLAKGDWTLIRAAAFGDTVPRCGEFGEDMLLIDAPVPGSGIAWDWSSKPLAGSGERWILAGGLSPENVRDAVAATQPWGVDVSSGVELSRGVKDPALITEFVKAVRGGC
As to B4, in data set [8], the Km is 23.0 ± 1.3 µM, the kcat was 4.3 ± 0.35 s⁻¹ and the kcat/Km turned out to be 190000 M⁻¹ s⁻¹.

B5: PriB_SspC (Streptomyces sp. C) (protein)
chain: MPNTLELLPAVDVRDGQAVRLVHGVSGSETSYGSPLEAALAWQASGAEWLHLVDLDAAFGTGDNRALVADITRAMDIKVELSGGIRDDATLAAALATGCTRVNLGTAALETPEWAAKAIAEHGDRIAIGLDVRGTTLKGRGWTSEGGDLYETLARLDSEGCARYVVTDIGKDGTLTGPNLELLKNVCAATDRPVVASGGVSSLDDLRALSELVPLGVEGAIVGKALYAKAFTLEEALEAVRA
B5: in [9], the Km turned out to be 11.4 ± 3.4 µM, the kcat came to 2.53 ± 0.74 s⁻¹ and the kcat/Km came to 220000 M⁻¹ s⁻¹. For the same molecule, in data set [10], the Km worked out at 149.9 ± 29 µM, the kcat is 1.4 ± 0.12 s⁻¹ and the kcat/Km was 9000 M⁻¹ s⁻¹.

B6: PriB_Sipo (Streptomyces ipomoeae 91-03) (protein)
chain: MAKLELLPAVDVRDGQAVRLVHGESGTETSYGSPLEAALAWQRAGAEWLHLVDLDAAFGTGDNRDLVAEVTRAMDIKVELSGGIRDDASLAKALATGCTRVNLGTAALETPEWVAKVIAEHGDKIAVGLDVKGTTLRGRGWTRDGGDLYETLERLDKEGCARYVVTDIAKDGTLQGPNLELLRNVCAATDRPVVASGGVSSLDDLRAIAELVPLGVEGAIVGKALYAKAFTLEEALEATS
Consider B6, for which, in data set [11], the Km stood at 3.8 ± 0.2 µM, the kcat amounted to 0.82 ± 0.02 s⁻¹ and the kcat/Km is 210000 M⁻¹ s⁻¹. In [8], the Km amounted to 60.8 ± 1.1 µM, the kcat is 8.25 ± 0.4 s⁻¹ and the kcat/Km turned out to be 140000 M⁻¹ s⁻¹.

B7: PriA_Msme (Mycolicibacterium smegmatis MC2 155) (protein)
chain: MATGATEAAGAGKRGLILLPAVDVVNGQAVRLVQGKAGSETDYGSAIEAAEAWQRDGAEWIHLVDLDAAFGRGSNRELLAEVVGKLDVAVELSGGIRDDESLRAALDTGCARVNIGTAALENPQWCARAIAEHGDRVAVGLDAQTDGAGGFRLRGRGWETDGGDLWEVLDRLDSEGCSRYVVTDVSKDGTLTGPNLDLLAAVAGRTDAPVIASGGVSSLDDLRAIATLTGVGVEGAIVGKALYAGRFTLPQALSAVSG
Take B7: in [12], the Km is 2.6 ± 0.5 µM, the kcat came to 0.85 ± 0.04 s⁻¹ and the kcat/Km is 330000 M⁻¹ s⁻¹. Besides, in data set [13], the Km stood at 7.9 ± 2.4 µM, the kcat was 3.1 ± 0.43 s⁻¹ and the kcat/Km stood at 390000 M⁻¹ s⁻¹.

B8: TrpF-3_Ssvi (Streptomyces sviceus ATCC 29083) (protein)
chain: MTLFVKICGLRTEQDVDTAVEAGADAIGFVFSDSPRRIDPAAAARLAARIPESVLTVGVFRREPLEYVRSVAAESGIGAVQLHGPEDRAYYDELSGGGWTLIRAAAFGDRVPRCGELGEDMLLLDAPVPGSGIAWDWSRKQVAGAGEKWLLAGGLTPENVREAVDVTRPWGVDVSSGVEASRGVKNPALITAFVEAARAGAVTSG
Take B8: in data set [4], the Km worked out at 9.4 ± 0.47 µM, the kcat is 0.82 ± 0.08 s⁻¹ and the kcat/Km turned out to be 88000 M⁻¹ s⁻¹.

Usually Km stands for the substrate concentration at which the rate is half of its maximum. Broadly, the kcat is the number of substrate molecules converted per active site and unit of time at saturation. Broadly, the kcat/Km is the second-order rate constant that governs catalysis at low substrate concentration.
